According to PMC10411877:

T1: GST-MAC3A (Arabidopsis thaliana (Col), UniProt Q94BR4 1-523)
T1 sequence: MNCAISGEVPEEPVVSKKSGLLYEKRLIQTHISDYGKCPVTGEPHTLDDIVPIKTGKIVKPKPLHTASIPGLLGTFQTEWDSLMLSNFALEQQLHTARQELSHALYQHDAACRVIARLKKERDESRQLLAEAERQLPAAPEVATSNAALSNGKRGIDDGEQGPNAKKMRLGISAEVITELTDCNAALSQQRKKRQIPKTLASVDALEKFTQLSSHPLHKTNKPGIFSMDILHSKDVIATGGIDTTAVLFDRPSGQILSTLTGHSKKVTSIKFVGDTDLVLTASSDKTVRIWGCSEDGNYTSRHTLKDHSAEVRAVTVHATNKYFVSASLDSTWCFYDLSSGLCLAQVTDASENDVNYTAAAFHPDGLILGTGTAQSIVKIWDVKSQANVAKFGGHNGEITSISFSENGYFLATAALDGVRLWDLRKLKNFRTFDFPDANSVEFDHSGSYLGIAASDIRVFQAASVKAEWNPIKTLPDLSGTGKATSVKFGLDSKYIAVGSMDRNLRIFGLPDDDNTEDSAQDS

B1: pIAA19biotin (dsDNA)
DNA 1: AATGACTCCACGTGTCGATATTG
DNA 2: CAATATCGACACGTGGAGTCATT
B2: pYUC8biotin (dsDNA)
DNA 1: CCTCTCCACGTGGCTTCCATTC
DNA 2: GAATGGAAGCCACGTGGAGAGG
B3: cold pIAA19 (dsDNA)
DNA 1: ATCTGTTCCCTTAACCACCTTGT
DNA 2: ACAAGGTGGTTAAGGGAACAGAT
B4: cold pYUC8 (dsDNA)
DNA 1: CCTCTCCACGTGGCTTCCATTC
DNA 2: GAATGGAAGCCACGTGGAGAGG

What was measured:
[1] = molecular target: T1, GST-MAC3A; test: FLISA
[2] = molecular target: T1, GST-MAC3A; test: competition FLISA
[3] = molecular target: T1, GST-MAC3A; test: competition FLISA; remark: listed apart in the source

| Binder | binding result [1] | other results |
| --- | --- | --- |
| B1 | binds |  |
| B2 | binds |  |
| B3 |  | binding result [2]: binds |
| B4 |  | binding result [3]: binds |
